{"source": "patent CN113735970A", "about": "(INST MILITARY MEDICINE ACADEMY MILITARY SCIENCES PLA, dated 2021)", "key": {"SARS-CoV-2 Gamma株S-ECD蛋白": {"biological_target": "SARS-CoV-2 Gamma株S-ECD蛋白 (SARS-CoV-2 Gamma株 (P.1), UniProt P0DTC2 14-1213)"}, "SARS-CoV-2 Delta株S-ECD蛋白": {"biological_target": "SARS-CoV-2 Delta株S-ECD蛋白 (SARS-CoV-2 Delta株 (B.1.617.2), UniProt P0DTC2 14-1213)"}, "SARS-CoV-2 Beta株S-ECD蛋白": {"biological_target": "SARS-CoV-2 Beta株S-ECD蛋白 (SARS-CoV-2 Beta株 (B.1.351), UniProt P0DTC2 14-1213)"}, "SARS-CoV-2 Alpha株S-ECD蛋白": {"biological_target": "SARS-CoV-2 Alpha株S-ECD蛋白 (SARS-CoV-2 Alpha株 (B.1.1.7), UniProt P0DTC2 14-1213)"}}, "data": [{"binder": "抗SARS-CoV-2全人源单克隆抗体ZWC6 (antibody, human IgG1, kappa, V domains shown) VH: EVQLVESGGGVVQPGTSLRLSCAASGFSFSHYVMYWVRQAPGKGLDWVAIISFDGSSQYYADSVKGRFTISRDNSKDTLYLQMHSLRPEDTAVYYCAIHGGTYYYDKNILAWGQGTLVTVSS VL: AIRMTQSPPTLSLSPGERATLSCRASQSVTNYLVWYQQKPGQAPRLLIYDTFNRATGIPARFSGSGSGTDFTLTISSLEPEDFAVYYCQQRSNWPPTFGQGTKVDIKR", "values": [{"measurement": "Kd", "setting": "SARS-CoV-2 Gamma株S-ECD蛋白", "result": 1.2, "unit": "nM"}, {"measurement": "koff", "setting": "SARS-CoV-2 Gamma株S-ECD蛋白", "result": 0.000182, "unit": "s⁻¹"}, {"measurement": "kon", "setting": "SARS-CoV-2 Gamma株S-ECD蛋白", "result": 151000, "unit": "M⁻¹ s⁻¹"}, {"measurement": "Kd", "setting": "SARS-CoV-2 Delta株S-ECD蛋白", "result": 4.21, "unit": "nM"}, {"measurement": "koff", "setting": "SARS-CoV-2 Delta株S-ECD蛋白", "result": 0.000305, "unit": "s⁻¹"}, {"measurement": "kon", "setting": "SARS-CoV-2 Delta株S-ECD蛋白", "result": 72400, "unit": "M⁻¹ s⁻¹"}, {"measurement": "Kd", "setting": "SARS-CoV-2 Beta株S-ECD蛋白", "result": 0.658, "unit": "nM"}, {"measurement": "koff", "setting": "SARS-CoV-2 Beta株S-ECD蛋白", "result": 0.000121, "unit": "s⁻¹"}, {"measurement": "kon", "setting": "SARS-CoV-2 Beta株S-ECD蛋白", "result": 184000, "unit": "M⁻¹ s⁻¹"}, {"measurement": "Kd", "setting": "SARS-CoV-2 Alpha株S-ECD蛋白", "result": 0.938, "unit": "nM"}, {"measurement": "koff", "setting": "SARS-CoV-2 Alpha株S-ECD蛋白", "result": 0.000164, "unit": "s⁻¹"}, {"measurement": "kon", "setting": "SARS-CoV-2 Alpha株S-ECD蛋白", "result": 175000, "unit": "M⁻¹ s⁻¹"}]}]}
